{
  "source": "the nanobody polyreactivity screen of Harvey et al. (2022)",
  "data": [
    {"assay": "yeast display, Sf9 membrane polyspecificity reagent, FACS + sequencing; frameworks hold sequencing errors", "method_in_brief": "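In a synthetic yeast display library (Saccharomyces cerevisiae BJ5465), nanobody expression was induced with galactose for 36–48 hours. FACS gates were set low and high (top ~1%) using anti-HA fluorescence for expression and streptavidin fluorescence for binding of the Sf9 membrane reagent. Each polyreactivity label is drawn from the gate of origin.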", "values": [
      {"sequence": "QVQLVESGGGLVQAGGSLRLSCAASGRIFSVYDMGWYRQAPGKERELVAAISWSGGTTYYADSVKGRFTISRDNAKNTVYLQMNSLKPEDTAVYYCAARSRSRYDYWGQGTQVTVSS", "polyreactivity (PSR sort gate)": "high polyreactivity"},
      {"sequence": "QVQLVESGGGLVQAGGSLRLSCAASGRIFSVYTMGWYRKAPGKERELVATISSGGRTNYADSVKGRFTISRDNAKNTVYLQMNSLKPEDTAVYYCAAVPYGFVGYDDYWGQGTQVTVSS", "polyreactivity (PSR sort gate)": "low polyreactivity"},
      {"sequence": "QVQLVESGGGLVQAGGSLRLSCAASGRIFSVYTMGWYRQAPGKERELVAAISSGASTNYADSVKGRFTISRDNAKNTVYLQMNSLKPEDTAVYYCAKVLTNFNLYYYWGQGTQVTVSS", "polyreactivity (PSR sort gate)": "low polyreactivity"},
      {"sequence": "QVQLVESGGGLVQAGGSLRLSCAASGRIFSVYTMGWYRQAPGKERELVATISSGGRTNYADSVKGRFTISRDNAKNTVYLQLNSLKPEDTAVYYCNADYFGQESWWMDYWGQGTQVTVSS", "polyreactivity (PSR sort gate)": "low polyreactivity"},
      {"sequence": "QVQLVESGGGLVQAGGSLRLSCAASGRIFSYNAMGWYRPAPGKEREIVAGITKSGDDTFYADSVKGRFTISRDNAKNTVYLQMNSLKPQDTAVYYCAAASNPRYYTNRMVYWGQGTQVTVSS", "polyreactivity (PSR sort gate)": "low polyreactivity"},
      {"sequence": "QVQLVESGGGLVQAGGSLRLSCAASGRIFSYNTVMGWYRQAPGKERELVAAITYSSASTYYADSVKGRFTISRDNAKNTVYLQMNSLKPEDTAVYYCAADAYTPGYRGDYWGQGTQVTVSS", "polyreactivity (PSR sort gate)": "low polyreactivity"},
      {"sequence": "QVQLVESGGGLVQAGGSLRLSCAASGRIFSYYAMGWYRQAPGKERELVAAISRTGGRTYYADSVKGRFTISRDNAKNTVYLQMNSLKPEDTAVYYCNVVGRRYWHWDQALDYWGQGTQVTVSS", "polyreactivity (PSR sort gate)": "high polyreactivity"},
      {"sequence": "QVQLVESGGGLVQAGGSLRLSCAASGRIFSYYAMGWYRQAPGKERELVAAITKSGGSTFYADSVKGRFTISRDNAKNTVYLQMNSLKPEDTAVYYCAAEVTLEDWGYSWKYDYLGQGTQVTVSS", "polyreactivity (PSR sort gate)": "high polyreactivity"},
      {"sequence": "QVQLVESGGGLVQAGGSLRLSCAASGRIFSYYAMGWYRQAPGKERELVAAITRRDGRTYYADSVKGRFTISRDNAKNTVYLQMNSLKPEDTAVYYCAAYLAASYDWGQGTQVTVSS", "polyreactivity (PSR sort gate)": "low polyreactivity"},
      {"sequence": "QVQLVESGGGLVQAGGSLRLSCAASGRIFSYYAMGWYRQAPGKERELVATISGSGGSTYYADSVKGRFTISRDNAKNTVYLQMNSLKPEDTAVYYCAATGFIFRGRVRAIPRRYNYWGQGTQVTVSS", "polyreactivity (PSR sort gate)": "high polyreactivity"},
      {"sequence": "QVQLVESGGGLVQAGGSLRLSCAASGRIFSYYAMRWFRQAPGKERELVAAISSGGSTNYADSVKGRFTISRDNAKNTVYLQMNSLKPEDTAVYYCNAVRGWTTRYDYWGQGTQVTVSS", "polyreactivity (PSR sort gate)": "high polyreactivity"},
      {"sequence": "QVQLVESGGGLVQAGGSLRLSCAASGRIFSYYDMGWYRQAPGKERELVAAITWGGGSTYYADSLKGRFTISRDNAKNTVYLHMNSLKPEDNAVFYSAADWSPSIWEYDYWGQGTEVTVSS", "polyreactivity (PSR sort gate)": "low polyreactivity"},
      {"sequence": "QVQLVESGGGLVQAGGSLRLSCAASGRIFSYYGMGWYRQAPGKERELVAAITWRGSTTNYADSVKGRFTISRDNAKNTVYLQMNSLKPEDTAVYYCAPLHSAGYAYDYWGQGTQVTVSS", "polyreactivity (PSR sort gate)": "high polyreactivity"},
      {"sequence": "QVQLVESGGGLVQAGGSLRLSCAASGRIFSYYTMGWYRQAPGKERELVAAISSGGSTNYADSVKGRFTISRDNAKNTVYLQMNSLKPEDTAVYYCAVRSGRRNYDRPAFGYWGQGTQVTVSS", "polyreactivity (PSR sort gate)": "high polyreactivity"},
      {"sequence": "QVQLVESGGGLVQAGGSLRLSCAASGRIFSYYTMGWYRQAPGKERELVAAITASDGDTYYADSVKGRFTISRDNAKNTVYLQMNSLKPEDTAVYYCNAELFSVNGYDYWGQGTQVTVSS", "polyreactivity (PSR sort gate)": "low polyreactivity"},
      {"sequence": "QVQLVESGGGLVQAGGSLRLSCAASGRIFTAYAMGWYRQAPGKERELVAAISSGDSTYYADSVKGRFTISRDNAKNTVYLQMNSLKPEDTAVYYCATGVYPDFEYDSWGQGTQVTVSS", "polyreactivity (PSR sort gate)": "low polyreactivity"},
      {"sequence": "QVQLVESGGGLVQAGGSLRLSCAASGRIFTAYAMVWYRPAPGKERELVAAISSGDSTYYADSVKGRFTISRDNAKNTVYLQKNSLKPEETAVYSCATGVYPDFEYDSWGQGTQVTVSS", "polyreactivity (PSR sort gate)": "low polyreactivity"},
      {"sequence": "QVQLVESGGGLVQAGGSLRLSCAASGRIFTDYAMAWYRQAPGKEREFVAAINKSGGSTYYADSVKGRFTISRDNAKNTVYLEMNSLKPEDTAVYYCAKSLGQTDWEYDSWGQGTQVTVSS", "polyreactivity (PSR sort gate)": "low polyreactivity"},
      {"sequence": "QVQLVESGGGLVQAGGSLRLSCAASGRIFTDYDMGGYRHAPGKERELVASISGSDGNTDYADSVKGRFTISRDNAKNTVYLQMNSLKPEDTAVYYCAADLRVYDFFRYPETYGYWGQGTQVTVSS", "polyreactivity (PSR sort gate)": "low polyreactivity"},
      {"sequence": "QVQLVESGGGLVQAGGSLRLSCAASGRIFTFNAMGWYRQAPGKERELVAAGSTYYADSVKGRFTISRDNAKNTVYLQMNSLKPEDTAVYYCAVEDLGSEGWGWYKEMDYWGQGTQVTVSS", "polyreactivity (PSR sort gate)": "low polyreactivity"},
      {"sequence": "QVQLVESGGGLVQAGGSLRLSCAASGRIFTFYAMGWYRQAPGKARELVASITGGGNTYYADSVKGRFTISRDNAKNTVYLQMNSLKPEDTAVYYCNADEWRWDEIIPYAVDYWGQGTQVTVSS", "polyreactivity (PSR sort gate)": "low polyreactivity"},
      {"sequence": "QVQLVESGGGLVQAGGSLRLSCAASGRIFTGNALGWYRQAPGKESELVAAITRNGGSTYYADSVKGRFTLSRDNAKNTVYVQMNSLKPEDTAVYYCAAKLSPVYYRRYDYWGQGTQVTVSS", "polyreactivity (PSR sort gate)": "high polyreactivity"},
      {"sequence": "QVQLVESGGGLVQAGGSLRLSCAASGRIFTGNVMGWYRQAPGKERELVAAISRRGGGTYYADSVKGRFTISRDNAKNTVYLQMNSLKPEDTAVYYCAAQYRSQGQPKGGVLYYYWGQGTQVTVSS", "polyreactivity (PSR sort gate)": "high polyreactivity"},
      {"sequence": "QVQLVESGGGLVQAGGSLRLSCAASGRIFTGNVMGWYRQAPGKERELVAAITYRRGSTYYADSVKGRFTISRDNAKNTVYLQMNSLKPEDSAVYYCNTGWDPYGYDYWGQGTQVTVSS", "polyreactivity (PSR sort gate)": "low polyreactivity"},
      {"sequence": "QVQLVESGGGLVQAGGSLRLSCAASGRIFTGYAMGWYRQAPGKERELVASITWRGGSTSYADSVKGRFTISRDNAKNTVYLQMNSLKPEDTAVYYCAAQKWYYPYYWGQGTQVTVSS", "polyreactivity (PSR sort gate)": "high polyreactivity"},
      {"sequence": "QVQLVESGGGLVQAGGSLRLSCAASGRIFTGYDMGWYRQAPGKERELVAAISRGGSTNYADSVKGRFTISRDNAKNTVYLQMNSLKPEDTAVYYCADGVHWDRGDYWVQGTQVTVSS", "polyreactivity (PSR sort gate)": "low polyreactivity"},
      {"sequence": "QVQLVESGGGLVQAGGSLRLSCAASGRIFTHNAMGWYRQAPGKEREVVAAISYSGVSTYYADSVKGRFTISRDNAKNTVYLQRNSLNTDDTAVYFCARRYWYPDAFYRYDYWGQGTPVTVSS", "polyreactivity (PSR sort gate)": "low polyreactivity"},
      {"sequence": "QVQLVESGGGLVQAGGSLRLSCAASGRIFTHYAMGWYRQAPGKERELVASISWSGGSTNYADSVKGRFTMSRDNAMNTVYLQMNSLKPEDTAVYYCARKYRYLFATFDYWGQGTQVTVSS", "polyreactivity (PSR sort gate)": "high polyreactivity"},
      {"sequence": "QVQLVESGGGLVQAGGSLRLSCAASGRIFTIYAMGWYRQAPGKERELVAAITRGGNTNYADSVKGRFTISRDNAKNTVYLQMNSLKPEDTAVYYCAARANVYTKKRDYWGQGTQVTVSS", "polyreactivity (PSR sort gate)": "high polyreactivity"},
      {"sequence": "QVQLVESGGGLVQAGGSLRLSCAASGRIFTKNTMGWYRQAPAQERELVAAIRSRAGSTYYADSVKGRFTISRDNEKNTVYLQMNSLKPEDTAVYYCAVRWFRSVDFDYWGQGTQVTVSS", "polyreactivity (PSR sort gate)": "low polyreactivity"},
      {"sequence": "QVQLVESGGGLVQAGGSLRLSCAASGRIFTKYAMGWYRQAPGKERELVAAISQIGGSTYYADSVKGRFTISRDKAKNTVYLQMNSLKPEDTAVYYCAARWREASYRYENWGQGTQVTVSS", "polyreactivity (PSR sort gate)": "high polyreactivity"},
      {"sequence": "QVQLVESGGGLVQAGGSLRLSCAASGRIFTKYAMGWYRQAPGKERELVAAITTSGGSTYYADSVKGRFTISRDNAKNTVYLQMNSLKPEDTAVYYCAARTYHRYDYWGQGTQVTVSS", "polyreactivity (PSR sort gate)": "high polyreactivity"},
      {"sequence": "QVQLVESGGGLVQAGGSLRLSCAASGRIFTLYAMGWYRQAPGTERELVAAITYTGANTYYADSVKGRFTISRDNAKNTVYLQMNSLKPEDTAVYYCAASGYYYDYWGQGTQVTVSS", "polyreactivity (PSR sort gate)": "high polyreactivity"},
      {"sequence": "QVQLVESGGGLVQAGGSLRLSCAASGRIFTLYTMGWYRQAPGKERELVAAISSSGGRTYYADSVKGRFTISRDNAKNTVYLQMNSLKPEDTAVYYCNAGYWYYGQDDYWGQGTQVTVSS", "polyreactivity (PSR sort gate)": "high polyreactivity"},
      {"sequence": "QVQLVESGGGLVQAGGSLRLSCAASGRIFTNYAMGWYRPAPGKEREYVAAISWSGGSTYYADSVKGRFTISRDNAKNTVYLQMNSLKPEYTAVYYCAAVGYAGLPYGLRPNNSGYWGQGTQVTVSS", "polyreactivity (PSR sort gate)": "low polyreactivity"},
      {"sequence": "QVQLVESGGGLVQAGGSLRLSCAASGRIFTNYVMGWYRQAPGKERELVAAISKSGSRTYYADSVKGRFTISRDNAKNTVYLQMNSLKPEDTAVYYCAKVDTPGSQRYITPDEGPEYEYWGQGTQVTVSS", "polyreactivity (PSR sort gate)": "high polyreactivity"},
      {"sequence": "QVQLVESGGGLVQAGGSLRLSCAASGRIFTQNAMGWYRQAPGKERELVAAITSGGSTYYADSVKGRFTISRDNAKNTVYLQMNSLKPEDTAVYYCAAEYGTYFVRYYAGASYRYGYWGQGTQVTVSS", "polyreactivity (PSR sort gate)": "low polyreactivity"},
      {"sequence": "QVQLVESGGGLVQAGGSLRLSCAASGRIFTQNAMGWYRQAPGKERELVAAITSGGSTYYADSVKGRFTISRDNAKNTVYLQMNSLKPEDTAVYYCAKRYPYYLSTMEYWGQGTQVTVSS", "polyreactivity (PSR sort gate)": "low polyreactivity"},
      {"sequence": "QVQLVESGGGLVQAGGSLRLSCAASGRIFTQYAMGWYRPAPGKERELVAAINASDGSTYADSVKGRFTISRDNAKNTVYLQMNSLKPEDPAVYYCNVTGGPYDFTRWSEFDHWGQGTQVTVSS", "polyreactivity (PSR sort gate)": "low polyreactivity"},
      {"sequence": "QVQLVESGGGLVQAGGSLRLSCAASGRIFTQYTMGCYRQAPGKERELVAAINYSGGRTNYADSVKGRFTISRDNAKNTVYLQMNSLKPEDTAVYYCAAGYRRATYGYWGQGTQVTVSS", "polyreactivity (PSR sort gate)": "high polyreactivity"},
      {"sequence": "QVQLVESGGGLVQAGGSLRLSCAASGRIFTRNAMGWYRQAPGKEREFVAAISWSGGSTYYADSVKGRFTISRDNAKNTVDLQMNSLKPEDTAVYYCSAKNSGGYVSWYDYWGQGTQVTVSS", "polyreactivity (PSR sort gate)": "low polyreactivity"}
    ]}
  ]
}
